Molecular target: HIV-1 capsid (CA) protein (HIV-1)
Assay: cryo-EM structure; cryo-ET of cryo-FIB lamellae with template matching and subtomogram averaging (C6 symmetry kept) of CA hexamers in capsid lattices of isolated VLP cores incubated with permeabilized CEM cells, EGS-fixed; cores outside the nucleus (approaching and docking), traversing the NPC and imported

HIV-1 capsid (CA) protein (natural protein)
stoichiometry N: 6

Reference: PMC12592377
